Laboratory results: publication PMC4593227, “Biochemical effects of mutations in the gene encoding the alpha subunit of eukaryotic initiation factor (eIF) 2B associated with Vanishing White Matter disease” (BMC Medical Genetics, 2015)

B1: His6-myc-tagged wild-type eIF2Bα [human] / myc-tagged eIF2Bβ [not stated] (parent)
chain 1: MDDKELIEYFKSQMKEDPDMASAVAAIRTLLEFLKRDKGETIQGLRANLTSAIETLCGVDSSVAVSSGGELFLRFISLASLEYSDYSKCKKIMIERGELFLRRISLSRNKIADLCHTFIKDGATILTHAYSRVVLRVLEAAVAAKKRFSVYVTESQPDLSGKKMAKALCHLNVPVTVVLDAAVGYIMEKADLVIVGAEGVVENGGIINKIGTNQMAVCAKAQNKPFYVVAESFKFVRLFPLNQQDVPDKFKYKADTLKVAQTGQDLKEEHPWVDYTAPSLITLLFTDLGVLTPSAVSDELIKLYL
chain 2: MPGSAAKGSELSERIESFVETLKRGGGPRSSEEMARETLGLLRQIITDHRWSNAGELMELIRREGRRMTAAQPSETTVGNMVRRVLKIIREEYGRLHGRSDESDQQESLHKLLTSGGLNEDFSFHYAQLQSNIIEAINELLVELEGTMENIAAQALEHIHSNEVIMTIGFSRTVEAFLKEAARKRKFHVIVAECAPFCQGHEMAVNLSKAGIETTVMTDAAIFAVMSRVNKVIIGTKTILANGALRAVTGTHTLALAAKHHSTPLIVCAPMFKLSPQFPNEEDSFHKFVAPEEVLPFTEGDILEKVSVHCPVFDYVPPELITLFISNIGGNAPSYIYRLMSELYHPDDHVL
B2: His6-myc-tagged wild-type eIF2Bα [human] / myc-tagged eIF2Bγ [not stated] (parent)
chain 1: B1 chain 1
chain 2: MEFQAVVMAVGGGSRMTDLTSSIPKPLLPVGNKPLIWYPLNLLERVGFEEVIVVTTRDVQKALCAEFKMKMKPDIVCIPDDADMGTADSLRYIYPKLKTDVLVLSCDLITDVALHEVVDLFRAYDASLAMLMRKGQDSIEPVPGQKGKKKAVEQRDFIGVDSTGKRLLFMANEADLDEELVIKGSILQKHPRIRFHTGLVDAHLYCLKKYIVDFLMENGSITSIRSELIPYLVRKQFSSASSQQGQEEKEEDLKKKELKSLDIYSFIKEANTLNLAPYDACWNACRGDRWEDLSRSQVRCYVHIMKEGLCSRVSTLGLYMEANRQVPKLLSALCPEEPPVHSSAQIVSKHLVGVDSLIGPETQIGEKSSIKRSVIGSSCLIKDRVTITNCLLMNSVTVEEGSNIQGSVICNNAVIEKGADIKDCLIGSGQRIEAKAKRVNEVIVGNDQLMEI

Variants of: B1
Assay: Ni2+ agarose affinity purification (pull-down), western blot for myc tag, quantified
Conditions: with myc-tagged eIF2Bβ; HEK293 cell lysates; 3 independent experiments; read off a plot

Row | ratio to parent | Variant
1 | 1 | chain 1 MDDKELIEYFKSQMKEDPDMASAVAAIRTLLEFLKRDKGETIQGLRANLTSAIETLCGVDSSVAVSSGGELFLRFISLASLEYSDYSKCKKIMIERGELFLRRISLSRNKIADLCHTFIKDGATILTHAYSRVVLRVLEAAVAAKKRFSVYVTESQPDLSGKKMAKALCHLNVPVTVVLDAAVGYIMEKADLVIVGAEGVVENGGIIYKIGTNQMAVCAKAQNKPFYVVAESFKFVRLFPLNQQDVPDKFKYKADTLKVAQTGQDLKEEHPWVDYTAPSLITLLFTDLGVLTPSAVSDELIKLYL [chain 1 N208Y]
2 | 0.66 | chain 1 MDDKELIEYFKSQMKEDPDMASAVAAIRTLLEFLKRDKGETIQGLRANLTSAIETLCGVDSSVAVSSGGELFLRFISLASLEYSDYSKCKKIMIERGELFLRRISLSRNKIADLCHTFIKDGATILTHAYSRVVLRVLEAAVAAKKRFSVYVTESQPDLSGKKMAKALCHLNVPVTVVLDAAVGYIMEKADLVIVGAEGVVENGGIINKIGTNQMAVCAKAQNKPFYVVAESFKFVRLFPLNQQDVPDKFKYKADTLKVAQTGQDLKEEHPWVDYTARSLITLLFTDLGVLTPSAVSDELIKLYL [chain 1 P278R]

Variants of: B2
Assay: as above
Conditions: with myc-tagged eIF2Bγ; HEK293 cell lysates; 3 independent experiments; read off a plot

Row | ratio to parent | Variant
3 | 0.95 | chain 1 MDDKELIEYFKSQMKEDPDMASAVAAIRTLLEFLKRDKGETIQGLRANLTSAIETLCGVDSSVAVSSGGELFLRFISLASLEYSDYSKCKKIMIERGELFLRRISLSRNKIADLCHTFIKDGATILTHAYSRVVLRVLEAAVAAKKRFSVYVTESQPDLSGKKMAKALCHLNVPVTVVLDAAVGYIMEKADLVIVGAEGVVENGGIINKIGTNQMAVCAKAQNKPFYVVAESFKFVRLFPLNQQDVPDKFKYKADTLKVAQTGQDLKEEHPWVDYTARSLITLLFTDLGVLTPSAVSDELIKLYL [chain 1 P278R]
4 | 1.2 | chain 1 MDDKELIEYFKSQMKEDPDMASAVAAIRTLLEFLKRDKGETIQGLRANLTSAIETLCGVDSSVAVSSGGELFLRFISLASLEYSDYSKCKKIMIERGELFLRRISLSRNKIADLCHTFIKDGATILTHAYSRVVLRVLEAAVAAKKRFSVYVTESQPDLSGKKMAKALCHLNVPVTVVLDAAVGYIMEKADLVIVGAEGVVENGGIIYKIGTNQMAVCAKAQNKPFYVVAESFKFVRLFPLNQQDVPDKFKYKADTLKVAQTGQDLKEEHPWVDYTAPSLITLLFTDLGVLTPSAVSDELIKLYL [chain 1 N208Y]
